According to US20250163449A1, “HERBICIDE-TOLERANT GENES AND METHOD FOR USING SAME” (QINGDAO KINGAGROOT CHEMICAL COMPOUND CO., LTD., priority 2022, published 2025):

B1: SEQ ID NO: 138: RdpA mutant L82H + V187L + F182W + G103L + R180T (protein)
chain: MHAALSPLSQRFERIAVQPLTGVLGAEITGVDLREPLDDSTWNEILDAFHTYQVIYFPGQAITNEQHIAFSRRFGPVDPVPHLKSIEGYPEVQMIRREANESLRVIGDDWHTDSTFLDAPPAAVVMRAIDVPEHGGDTGFLSMYTAWETLSPTMQATIEGLNVVHSATRVFGSLYQAQNTRWSNTSLKVMDVDAGDRETVHPLVVTHPGSGRKGLYVNQVYCQRIEGMTDAESKPLLQFLYEHATRFDFTCRVRWKKDQVLVWDNLCTMHRAVPDYAGKFRYLTRTTVGGVRPAR
B2: SEQ ID NO: 142: RdpA mutant L82H + V187L + F182W + R104G + T112S + R180Q (protein)
chain: MHAALSPLSQRFERIAVQPLTGVLGAEITGVDLREPLDDSTWNEILDAFHTYQVIYFPGQAITNEQHIAFSRRFGPVDPVPHLKSIEGYPEVQMIRREANESGGVIGDDWHSDSTFLDAPPAAVVMRAIDVPEHGGDTGFLSMYTAWETLSPTMQATIEGLNVVHSATRVFGSLYQAQNQRWSNTSLKVMDVDAGDRETVHPLVVTHPGSGRKGLYVNQVYCQRIEGMTDAESKPLLQFLYEHATRFDFTCRVRWKKDQVLVWDNLCTMHRAVPDYAGKFRYLTRTTVGGVRPAR

Tests used:
[1] = Conversion rate of substrate compound A by E. coli expressing each engineered protein (HPLC, oxygenase activity); format: biochemical; conditions: Reaction condition 2: bacteria cultured overnight, 8 times dose of substrate compound A of condition 1 added, react 3 hours the next day
From the text: The high-throughput bacterial protein expression was achieved by cloning the synthesized gene that encodes each engineered protein into a bacterial expression vector with a C-terminal histidine tag (His-tag). The vectors were transformed into Escherichia coli (E. coli), and expression of the engineered proteins was induced. E. coli cultures were selected and cultured in centrifuge tubes overnight, meanwhile, added with substrates and IPTG, and the cultures were centrifuged to pellet the bacteria the next day. Alternatively, E. coli cultures were selected and cultured in centrifuge tubes overnight, and centrifuged to pellet the bacteria after adding substrates for reaction the next day. The supernatant of reaction solution was pipetted into a 96-well plate and the absorbance at 510 nm from 4-aminoantipyrine and potassium ferricyanide was measured by an endpoint colorimetric method to detect phenol products. Substrate reduction and product yield were measured by high performance liquid chromatography (HPLC) to detect the oxygenase activity (i.e., enzymatic activity) of the engineered proteins, and the activities of the proteins were compared by calculating conversion rates.
Conversion rate=(Peak area of initial substrate−Peak area of substrate after reaction)/Peak area of initial substrate*100%

rice (Jinjing 818) [2] = assay: Transgenic rice seedlings, compound B added to medium at rooting phase; format: in vivo; conditions: at least 1 μM compound B in medium (0.5 and 1 μM for SEQ ID NO: 42), 17-26 days
Procedure: Plant transformation vectors were constructed, each comprising a recombinant DNA molecule encoding an engineered protein (SEQ ID NO: 42/38/82/86/102/106/126/138/142) with the protein-coding sequence optimized for monocot expression, and rice (Jinjing 818) calli were transformed with these vectors using Agrobacterium tumifaciens and standard methods known in the art. Different concentrations of hormone herbicide compound B were added at the rooting phase of the rice seedlings to test hormone resistance, wherein, the test results of control Jinjing 818 plants and transgenic Jinjing 818 plants comprising the protein-coding gene of SEQ ID NO: 42 after adding 0.5 μM and 1 μM compound B to medium for 19 days are shown in FIG. 1. The test results of control Jinjing 818 plants and transgenic Jinjing 818 plants comprising the protein-coding genes of SEQ ID NO: 38/82/86/102/106/126/138/142 after adding 1 μM compound B to medium are shown in FIG. 5-11.

rice (Jinjing 818) [3] = assay: Transgenic rice T0 plantlets in greenhouse sprayed with compound B; format: in vivo; conditions: medicated medium test and greenhouse spraying test for T0 generation, compound B
Procedure: Then, the obtained regenerated TO generation transgenic plantlets grew in the greenhouse, and were sprayed with compound B at the growth stage when approximately two leaves unfolded and the third one just appearing. Resistance levels of plants were recorded and evaluated after spraying treatment, wherein, the test results of control Jinjing 818 plants and transgenic Jinjing 818 plants comprising the protein-coding gene of SEQ ID NO: 42 after applying 20 g, 40 g, 60 g, 80 g, 100 g, 120 g/mu (1 mu=1/15 ha) compound B for corresponding days (DAT) are shown in FIG. 2.

Arabidopsis thaliana = assay: T2 transgenic Arabidopsis thaliana seeds screened on compound A medium; format: in vivo; conditions: 0.15 μM compound A in medium, 11-24 days
From the text: Engineered proteins were selected for Arabidopsis thaliana transformation and plant analysis. DNA constructs were transformed into Arabidopsis thaliana using Agrobacterium tumifaciens and standard methods known in the art.
The transformed TO transgenic plantlets grew in the greenhouse. T1 generation Arabidopsis thaliana plant seeds produced by transformation of all constructs were collected after approximately 60 days of growth. Transgenic T1 generation Arabidopsis thaliana plants were screened by adding HYG to medium for T1 generation. T1 plants were selfed to produce seeds of T2 generation Arabidopsis thaliana plants. Wherein, compound A was added to medium to screen and test T2 generation Arabidopsis thaliana plant seeds, that were produced by all constructs, comprising unique events screened by T1 generation.

Molecule	Conversion rate [1] [%]	drug resistance (tolerance to compound B) compared with wild-type plants (rice (Jinjing 818) [2])	tolerance compared with the wild types (summary) (rice (Jinjing 818) [3])	drug resistance compared with wild-type Arabidopsis thaliana (longer roots and larger leaves) (Arabidopsis thaliana)
B1	54.6	exhibited better drug resistance	exhibited apparent tolerance	exhibited better drug resistance
B2	67	exhibited better drug resistance	exhibited apparent tolerance	exhibited better drug resistance
